# Test results taken from article PMC3479090.
# Tests used:
# [1] = target: human CD1d construct with C-terminal 3C protease site and 6X-Histidine tag, loaded with α-galactosylceramide (form used for SPR), P15813;P61769; test: SPR; conditions: read off a plot; for koff: parent: est. 0.34; for kon: parent: est. 1.3e4
# [2] = target: Vα24+ NKT TCR clone J24L.17 (iNKT TCR, Vα24-Jα18/Vβ11) (human); test: SPR; same curves as the kinetic analysis plus 9 µM and 27 µM CD1d–αGalCer; TCR on the chip; equilibrium analysis
# [3] = target: Vα24+ NKT TCR clone J24L.17 (iNKT TCR, Vα24-Jα18/Vβ11) (human); test: SPR; BIAcore 3000; 300 RU of TCR captured on a Ni-NTA sensor chip, surface blocked with recombinant IgFc; CD1d–αGalCer injected (0, 0.037, 0.111, 0.333, 1, 3 µM for kinetics; series up to 27 µM) at 30 µl/min in 10 mM Hepes pH 7.4, 150 mM NaCl, 0.005% Tween-20; kinetic analysis, Langmuir 1:1 model
koff [1] [s⁻¹],kon [1] [M⁻¹ s⁻¹],Kd [1] [nM],Kd [2] [nM],Kd [3] [nM],koff [3] [s⁻¹],kon [3] [M⁻¹ s⁻¹],Substance
0.38,23000,1700,–,–,–,–,"Vα24− TCR J24.N22 (Vα3.1-Jα18/Vβ11), soluble heterodimer with zippers and His tags S50A"
0.89,3700,24000,–,–,–,–,"Vα24− TCR J24.N22 (Vα3.1-Jα18/Vβ11), soluble heterodimer with zippers and His tags N29A"
–,–,–,1900,2100,0.414,194000,"human CD1d construct with C-terminal 3C protease site and 6X-Histidine tag, loaded with α-galactosylceramide (form used for SPR) (from UniProt P15813 20-335; P61769 21-119) (complex)"
–,12000,3400,–,–,–,–,"Vα24− TCR J24.N22 (Vα3.1-Jα18/Vβ11), soluble heterodimer with zippers and His tags N51A"
0.51,12000,4200,–,–,–,–,"Vα24− TCR J24.N22 (Vα3.1-Jα18/Vβ11), soluble heterodimer with zippers and His tags S27A"
0.52,30000,1700,–,–,–,–,"Vα24− TCR J24.N22 (Vα3.1-Jα18/Vβ11), soluble heterodimer with zippers and His tags S97A"
